Experimental data reported in the supplement of paper PMC9233669.
Variants at the floor of the assay were thinned out.

Key:
biotinyl-Phe-oxazolone = test: self-aminoacylation, catalytic enhancement (BFO) (fold over background); higher = more active; k-Seq, kA / k0A0; sequences stand for … in GGGAAUGGAUCCACAUCUACGAAUUC…UUCACUGCAGACUUGACGAAGCUG
How it was run: (§1)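 Mutagenized RNA pools with a 21-nt variable region (0.43 μM) reacted with each biotinyl-aminoacyl-oxazolone at 2–1250 μM. Reactions ran in 50 μL HEPES/NaCl/KCl/MgCl2/CaCl2 buffer with 5% acetonitrile, pH 6.9–7.0, for 90 minutes at room temperature. Streptavidin-captured RNA was quantified by triplicate qPCR and Illumina sequencing, and per-sequence fraction reacted was fit to a pseudo-first-order model with 1000 bootstraps. Catalytic enhancement is median kA divided by the uncatalyzed rate, the low-activity peak of a bimodal Gaussian fit.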

biotinyl-Val-oxazolone = test: self-aminoacylation, catalytic enhancement (BVO) (fold over background); higher = more active; k-Seq, kA / k0A0; sequences stand for … in GGGAAUGGAUCCACAUCUACGAAUUC…UUCACUGCAGACUUGACGAAGCUG
How it was run: as §1

biotinyl-Met-oxazolone = test: self-aminoacylation, catalytic enhancement (BMO) (fold over background); higher = more active; k-Seq, kA / k0A0; sequences stand for … in GGGAAUGGAUCCACAUCUACGAAUUC…UUCACUGCAGACUUGACGAAGCUG
How it was run: as §1

biotinyl-Ile-oxazolone = test: self-aminoacylation, catalytic enhancement (BIO) (fold over background); higher = more active; k-Seq, kA / k0A0; sequences stand for … in GGGAAUGGAUCCACAUCUACGAAUUC…UUCACUGCAGACUUGACGAAGCUG
How it was run: as §1

biotinyl-Trp-oxazolone = test: self-aminoacylation, catalytic enhancement (BWO) (fold over background); higher = more active; k-Seq, kA / k0A0; sequences stand for … in GGGAAUGGAUCCACAUCUACGAAUUC…UUCACUGCAGACUUGACGAAGCUG
How it was run: as §1

biotinyl-Leu-oxazolone = test: self-aminoacylation, catalytic enhancement (BLO) (fold over background); higher = more active; k-Seq, kA / k0A0; sequences stand for … in GGGAAUGGAUCCACAUCUACGAAUUC…UUCACUGCAGACUUGACGAAGCUG
How it was run: as §1

Row | Sequence | self-aminoacylation (biotinyl-Phe-oxazolone) | self-aminoacylation (biotinyl-Val-oxazolone) | self-aminoacylation (biotinyl-Met-oxazolone) | self-aminoacylation (biotinyl-Ile-oxazolone) | self-aminoacylation (biotinyl-Trp-oxazolone) | self-aminoacylation (biotinyl-Leu-oxazolone)
1 | AGGUUUGCGAAUAGUCGCAAG [Fam3.1 aminoacylation ribozyme variant] | 7.75 | 1.75 | 2.24 | 1.63 | 3.06 | 1.82
2 | AUUACCCUGGUCAUUGUGUGA [Fam2.1 aminoacylation ribozyme variant] | 8.81 | 1.49 | 2.59 | 1.46 | 3.23 | 2.23
3 | AUCACCCUGGUCAUUGAGUGA [Fam2.1 aminoacylation ribozyme variant] | 75.1 | 5.8 | 11.3 | 5.63 | 12.9 | 13
4 | AUUCACCUAGGUCAUCUGGGG [Fam2.2 aminoacylation ribozyme variant] | 2.49 | 1.5 | 1.83 | 1.63 | 1.54 | 1.9
5 | AAUACCCUGGUCAUCAAGUGA [Fam2.1 aminoacylation ribozyme variant] | 2.42 | 1.16 | 1.48 | 1.15 | 1.75 | 1.56
6 | AUUCUCGUAGGUCAUCGGGUG [Fam2.2 aminoacylation ribozyme variant] | 77.6 | 7.51 | 11.3 | 6.47 | 9.21 | 12.2
7 | AUUACGCUGGUCACCGAGUGA [Fam2.1 aminoacylation ribozyme variant] | 47.5 | 4.31 | 6.73 | 3.71 | 7.92 | 7.46
8 | AAGUUUGCUACCAGUCGCAAG [Fam3.1 aminoacylation ribozyme variant] | 0.754 | 0.912 | 1.47 | 1.12 | 0.552 | 0.891
9 | AUUCACCUAGGCCAUCGGGGG [Fam2.2 aminoacylation ribozyme variant] | 10.8 | 2.82 | 2.64 | 2.5 | 2.28 | 4.55
10 | AAGUUUGGUAAUAGACGCAAG [Fam3.1 aminoacylation ribozyme variant] | 0.706 | 0.487 | 0.453 | 0.574 | 0.575 | 0.442
11 | AUUGACUUAGGUCAUCGGGUG [Fam2.2 aminoacylation ribozyme variant] | 39.1 | 3.95 | 5.25 | 3.47 | 5.77 | 6.27
12 | CUACUUAAAACAAUCAGUCUG [Fam1A.1 aminoacylation ribozyme variant] | 0.689 | 0.915 | 0.723 | 0.877 | 0.512 | 0.715
13 | CUAGUUCAAACAAUAGGUCUG [Fam1A.1 aminoacylation ribozyme variant] | 0.923 | 0.952 | 0.949 | 1.04 | 0.721 | 1.09
14 | AUUCACCUGGGUCAUUGGGUG [Fam2.2 aminoacylation ribozyme variant] | 31.1 | 4.03 | 4.52 | 3.51 | 4.15 | 6.07
15 | CAACACUUCAAGCAUUCGGUC [Fam1B.1 aminoacylation ribozyme variant] | 1.04 | 1.76 | 1.61 | 1.71 | 1.83 | 1.58
16 | GUUCACCUAGGUCAUCUGGUG [Fam2.2 aminoacylation ribozyme variant] | 8.36 | 1.71 | 2.62 | 1.71 | 2.12 | 2.56
17 | AUUCACCUUGGUCUUCGGGUG [Fam2.2 aminoacylation ribozyme variant] | 37.3 | 4.25 | 4.81 | 3.75 | 5.01 | 6.07
18 | AUUACUCUGGUCAUAGAGUGA [Fam2.1 aminoacylation ribozyme variant] | 20.8 | 2.79 | 4.99 | 3.03 | 6.05 | 5.04
19 | GAUCACCUAGGUCAUCGGGUG [Fam2.2 aminoacylation ribozyme variant] | 17.2 | 3.54 | 3.44 | 3.45 | 5.58 | 3.71
20 | CCACACUUCAUGCAAUCGGUC [Fam1B.1 aminoacylation ribozyme variant] | 0.866 | 0.9 | 0.687 | 0.819 | 0.689 | 0.693
21 | AAAUUUGCUAAUAGUGGCAAG [Fam3.1 aminoacylation ribozyme variant] | 0.608 | 0.74 | 0.697 | 1.01 | 0.533 | 0.7
22 | AAGUUUGCUAAUGGACGCAAG [Fam3.1 aminoacylation ribozyme variant] | 1.18 | 0.576 | 0.604 | 0.591 | 0.56 | 0.83
23 | CCACCAUUCAAGCAAUCGGUC [Fam1B.1 aminoacylation ribozyme variant] | 1.89 | 1.3 | 0.934 | 1.16 | 1.4 | 0.958
24 | AAUACCCAGGUCAUCGAGUGA [Fam2.1 aminoacylation ribozyme variant] | 17.6 | 2.56 | 4.41 | 2.87 | 5.81 | 4.58
25 | AUUCACCUAGUUAAUCGGGUG [Fam2.2 aminoacylation ribozyme variant] | 20 | 2.04 | 3.08 | 2.01 | 3.53 | 3.98
26 | AAGUUUUCUAAUAGUCGCACG [Fam3.1 aminoacylation ribozyme variant] | 1.8 | 1.25 | 1.38 | 1.3 | 1.34 | 1.24

Row | Sequence | self-aminoacylation (biotinyl-Phe-oxazolone) | self-aminoacylation (biotinyl-Val-oxazolone) | self-aminoacylation (biotinyl-Met-oxazolone) | self-aminoacylation (biotinyl-Ile-oxazolone) | self-aminoacylation (biotinyl-Trp-oxazolone) | self-aminoacylation (biotinyl-Leu-oxazolone)
27 | AUUCACCUCAGUCAUCGGGUG [Fam2.2 aminoacylation ribozyme variant] | 56.6 | 4.58 | 7.34 | 4.75 | 6.63 | 8.93
28 | AUUCACCGAGGUCAUCGGGCG [Fam2.2 aminoacylation ribozyme variant] | 24.4 | 3.86 | 3.34 | 3.19 | 2.96 | 3.66
29 | AAUUUGGCUAAUAGUCGCAAG [Fam3.1 aminoacylation ribozyme variant] | 2.14 | 1.7 | 1.82 | 1.79 | 1.99 | 1.96
30 | AAGUUUGCUAUUUGUCGCAAG [Fam3.1 aminoacylation ribozyme variant] | 1.05 | 0.819 | 0.936 | 1.04 | 1.2 | 0.989
31 | CUACUUCAAACAAUCCCUCUG [Fam1A.1 aminoacylation ribozyme variant] | 0.842 | 0.525 | 0.68 | 0.74 | 0.44 | 0.558
32 | AUCCGCCUAGGUCAUCGGGUG [Fam2.2 aminoacylation ribozyme variant] | 120 | 10.1 | 15.9 | 10.3 | 16.4 | 18.5
33 | AUUACCCUCGUCAUAGAGUGA [Fam2.1 aminoacylation ribozyme variant] | 11.5 | 2.72 | 4.53 | 2.43 | 4.65 | 4.19
34 | UUUCACCUAGGUCAUCAGGUG [Fam2.2 aminoacylation ribozyme variant] | 1.36 | 1.7 | 1.79 | 1.58 | 1.52 | 1.52
35 | AUUCACCUAGGUCAUCGACUG [Fam2.2 aminoacylation ribozyme variant] | 0.459 | 0.6 | 0.561 | 0.564 | 0.318 | 0.553
36 | CCACACUUCAAGCAACGGGUC [Fam1B.1 aminoacylation ribozyme variant] | 0.777 | 0.81 | 0.626 | 0.624 | 0.464 | 0.569
37 | AUUACACUGGUCAUCGAAUGA [Fam2.1 aminoacylation ribozyme variant] | 0.652 | 1.25 | 0.931 | 1.12 | 1.15 | 0.978
38 | AUUCAUCUAGGUGAUCGGGUG [Fam2.2 aminoacylation ribozyme variant] | 20.3 | 2.54 | 2.85 | 2.4 | 3.76 | 3.57
39 | AAAUUUACUAAUAGUCGCAAG [Fam3.1 aminoacylation ribozyme variant] | 3.14 | 2.21 | 2.27 | 2.35 | 2.31 | 1.89
40 | CUACUUCAAAUUAUCGGUCUG [Fam1A.1 aminoacylation ribozyme variant] | 0.806 | 1.11 | 1.01 | 1.12 | 0.849 | 0.945
41 | CCACACUUAAAGCAAUCGGUU [Fam1B.1 aminoacylation ribozyme variant] | 0.794 | 1.15 | 0.896 | 1.08 | 0.916 | 0.849
42 | AAAUUUGCUAAUAGUCGCAAU [Fam3.1 aminoacylation ribozyme variant] | 2.52 | 2.13 | 2.35 | 2.71 | 3.09 | 2.33
43 | CUACUUCAACCAAUCGCUCUG [Fam1A.1 aminoacylation ribozyme variant] | 1.4 | 0.729 | 0.806 | 0.872 | 1.43 | 0.843
44 | AUUACACUGGUCUUCGAGUGA [Fam2.1 aminoacylation ribozyme variant] | 18.8 | 2.87 | 3.75 | 2.75 | 6.04 | 4.42
45 | CAUUUUGCUAAUAGUCGCAAG [Fam3.1 aminoacylation ribozyme variant] | 0.981 | 1.04 | 1.01 | 1.3 | 0.635 | 1.07
46 | AUUCACCUAGGUCAUCGAGAG [Fam2.2 aminoacylation ribozyme variant] | 1.13 | 0.848 | 1.07 | 0.915 | 0.394 | 1.47
47 | CCACACUUCAGGCAAUGGGUC [Fam1B.1 aminoacylation ribozyme variant] | 0.992 | 0.722 | 0.802 | 0.733 | 0.952 | 0.702
48 | CCACACUUCAAGCAUUCGGUC [Fam1B.1 aminoacylation ribozyme variant] | 0.969 | 1.27 | 0.887 | 1.12 | 0.943 | 0.899
49 | AUUCACCUAGGACAUCGGGUU [Fam2.2 aminoacylation ribozyme variant] | 3.67 | 1.77 | 1.39 | 1.47 | 1.25 | 1.38
50 | AUUCACCUUAGUCAUCGGGUG [Fam2.2 aminoacylation ribozyme variant] | 38.8 | 3.83 | 6.02 | 3.73 | 5.66 | 7.94
51 | AUUCACCAUGGUCAUCGGGUG [Fam2.2 aminoacylation ribozyme variant] | 69.7 | 6.37 | 10.3 | 6.21 | 10.5 | 15.6
